Data published in patent US20160257760A1 (OXFORD BIOTHERAPEUTICS, published 2016).

Columns and labels:
[1] = biological target: T1, LY75 (DEC-205) on COLO205 cells (human, UniProt O60449 28-1722); assay: competitive FACS on COLO205 cells
T1 construct: Endogenous LY75 on COLO205 human colorectal adenocarcinoma cells; also called Lymphocyte antigen 75
Description: Cells were washed and resuspended in FACS buffer (PBS+2% FBS), neutralized with growth media, and counted. Cells were plated at 50,000 cells per well in a V Bottom 96-well plate. Cells were washed once with FACS buffer (PBS (Fisher, catalog # SH30028-03)+2% FBS). […] Test wells that required single or multiple staining steps were left in FACS buffer as appropriate to ensure the final staining was completed simultaneously for all conditions tested. Two wells were left unstained in FACS buffer as controls.
After the incubation with blocking antibody, cells were washed twice in FACS buffer. […] The cells were washed as above and resuspended in FACS buffer plus 1 ug/ml mouse anti-maytansine antibody and incubated in ice for 45 minutes. The cells were washed as above and resuspended in FACS buffer containing 2 ug/ml goat anti-mouse kappa RPE. The cells were incubated on ice for 45 minutes then washed as above. The cells were resuspended in FACS buffer at 200 ul per well. Mean fluorescence intensity of each sample was determined using a Guava EasyCyte Plus HT Flow Cytometer (96 well plate formats) and the raw data was analyzed using the Guava Cytosoft.

SCYKVFHA = biological target: T2, SCYKVFHA; assay: peptide microarray, 1 µg/mL LY75_A1, anti-human IgG Alexa 647
T2 peptide: SCYKVFHA
Description: (§1) The chip comprised three panels such that the experiment was performed in triplicate. […] The binding assay was performed under the following conditions:—The microarray comprising the contiguous peptides in triplicate was washed with 1 mL of binding buffer at 4° C. for 20 min. […] The array was again washed with 0.5 mL of washing buffer at 4° C. for 30 min.

CYKVFHAE = biological target: T3, CYKVFHAE; assay: as above
T3 peptide: CYKVFHAE
Description: as §1

SLSCYKVF = biological target: T4, SLSCYKVF; assay: as above
T4 peptide: SLSCYKVF
Description: as §1

LSCYKVFH = biological target: T5, LSCYKVFH; assay: as above
T5 peptide: LSCYKVFH
Description: as §1

FTSCSERH = biological target: T6, FTSCSERH; assay: as above
T6 peptide: FTSCSERH
Description: as §1

TSCSERHF = biological target: T7, TSCSERHF; assay: as above
T7 peptide: TSCSERHF
Description: as §1

SCSERHFV = biological target: T8, SCSERHFV; assay: as above
T8 peptide: SCSERHFV
Description: as §1

SERHFVSL = biological target: T9, SERHFVSL; assay: as above
T9 peptide: SERHFVSL
Description: as §1

ERHFVSLC = biological target: T10, ERHFVSLC; assay: as above
T10 peptide: ERHFVSLC
Description: as §1

RHFVSLCQ = biological target: T11, RHFVSLCQ; assay: as above
T11 peptide: RHFVSLCQ
Description: as §1

FVSLCQKY = biological target: T12, FVSLCQKY; assay: as above
T12 peptide: FVSLCQKY
Description: as §1

SLCQKYSE = biological target: T13, SLCQKYSE; assay: as above
T13 peptide: SLCQKYSE
Description: as §1

LCQKYSEV = biological target: T14, LCQKYSEV; assay: as above
T14 peptide: LCQKYSEV
Description: as §1

CQKYSEVK = biological target: T15, CQKYSEVK; assay: as above
T15 peptide: CQKYSEVK
Description: as §1

QKYSEVKS = biological target: T16, QKYSEVKS; assay: as above
T16 peptide: QKYSEVKS
Description: as §1

EAVYFHQH = biological target: T17, EAVYFHQH; assay: as above
T17 peptide: EAVYFHQH
Description: as §1

AVYFHQHS = biological target: T18, AVYFHQHS; assay: as above
T18 peptide: AVYFHQHS
Description: as §1

VYFHQHSI = biological target: T19, VYFHQHSI; assay: as above
T19 peptide: VYFHQHSI
Description: as §1

YFHQHSIL = biological target: T20, YFHQHSIL; assay: as above
T20 peptide: YFHQHSIL
Description: as §1

KKLSRLTY = biological target: T21, KKLSRLTY; assay: as above
T21 peptide: KKLSRLTY
Description: as §1

KLSRLTYS = biological target: T22, KLSRLTYS; assay: as above
T22 peptide: KLSRLTYS
Description: as §1

LSRLTYSS = biological target: T23, LSRLTYSS; assay: as above
T23 peptide: LSRLTYSS
Description: as §1

NGSRWIQY = biological target: T24, NGSRWIQY; assay: as above
T24 peptide: NGSRWIQY
Description: as §1

GSRWIQYK = biological target: T25, GSRWIQYK; assay: as above
T25 peptide: GSRWIQYK
Description: as §1

SRWIQYKG = biological target: T26, SRWIQYKG; assay: as above
T26 peptide: SRWIQYKG
Description: as §1

RWIQYKGH = biological target: T27, RWIQYKGH; assay: as above
T27 peptide: RWIQYKGH
Description: as §1

WIQYKGHC = biological target: T28, WIQYKGHC; assay: as above
T28 peptide: WIQYKGHC
Description: as §1

QYKGHCYK = biological target: T29, QYKGHCYK; assay: as above
T29 peptide: QYKGHCYK
Description: as §1

YKGHCYKS = biological target: T30, YKGHCYKS; assay: as above
T30 peptide: YKGHCYKS
Description: as §1

HCYKSDQA = biological target: T31, HCYKSDQA; assay: as above
T31 peptide: HCYKSDQA
Description: as §1

CYKSDQAL = biological target: T32, CYKSDQAL; assay: as above
T32 peptide: CYKSDQAL
Description: as §1

YKSDQALH = biological target: T33, YKSDQALH; assay: as above
T33 peptide: YKSDQALH
Description: as §1

KSDQALHS = biological target: T34, KSDQALHS; assay: as above
T34 peptide: KSDQALHS
Description: as §1

Measured: binding result

T1 sequence (O60449 28-1722 limits assumed): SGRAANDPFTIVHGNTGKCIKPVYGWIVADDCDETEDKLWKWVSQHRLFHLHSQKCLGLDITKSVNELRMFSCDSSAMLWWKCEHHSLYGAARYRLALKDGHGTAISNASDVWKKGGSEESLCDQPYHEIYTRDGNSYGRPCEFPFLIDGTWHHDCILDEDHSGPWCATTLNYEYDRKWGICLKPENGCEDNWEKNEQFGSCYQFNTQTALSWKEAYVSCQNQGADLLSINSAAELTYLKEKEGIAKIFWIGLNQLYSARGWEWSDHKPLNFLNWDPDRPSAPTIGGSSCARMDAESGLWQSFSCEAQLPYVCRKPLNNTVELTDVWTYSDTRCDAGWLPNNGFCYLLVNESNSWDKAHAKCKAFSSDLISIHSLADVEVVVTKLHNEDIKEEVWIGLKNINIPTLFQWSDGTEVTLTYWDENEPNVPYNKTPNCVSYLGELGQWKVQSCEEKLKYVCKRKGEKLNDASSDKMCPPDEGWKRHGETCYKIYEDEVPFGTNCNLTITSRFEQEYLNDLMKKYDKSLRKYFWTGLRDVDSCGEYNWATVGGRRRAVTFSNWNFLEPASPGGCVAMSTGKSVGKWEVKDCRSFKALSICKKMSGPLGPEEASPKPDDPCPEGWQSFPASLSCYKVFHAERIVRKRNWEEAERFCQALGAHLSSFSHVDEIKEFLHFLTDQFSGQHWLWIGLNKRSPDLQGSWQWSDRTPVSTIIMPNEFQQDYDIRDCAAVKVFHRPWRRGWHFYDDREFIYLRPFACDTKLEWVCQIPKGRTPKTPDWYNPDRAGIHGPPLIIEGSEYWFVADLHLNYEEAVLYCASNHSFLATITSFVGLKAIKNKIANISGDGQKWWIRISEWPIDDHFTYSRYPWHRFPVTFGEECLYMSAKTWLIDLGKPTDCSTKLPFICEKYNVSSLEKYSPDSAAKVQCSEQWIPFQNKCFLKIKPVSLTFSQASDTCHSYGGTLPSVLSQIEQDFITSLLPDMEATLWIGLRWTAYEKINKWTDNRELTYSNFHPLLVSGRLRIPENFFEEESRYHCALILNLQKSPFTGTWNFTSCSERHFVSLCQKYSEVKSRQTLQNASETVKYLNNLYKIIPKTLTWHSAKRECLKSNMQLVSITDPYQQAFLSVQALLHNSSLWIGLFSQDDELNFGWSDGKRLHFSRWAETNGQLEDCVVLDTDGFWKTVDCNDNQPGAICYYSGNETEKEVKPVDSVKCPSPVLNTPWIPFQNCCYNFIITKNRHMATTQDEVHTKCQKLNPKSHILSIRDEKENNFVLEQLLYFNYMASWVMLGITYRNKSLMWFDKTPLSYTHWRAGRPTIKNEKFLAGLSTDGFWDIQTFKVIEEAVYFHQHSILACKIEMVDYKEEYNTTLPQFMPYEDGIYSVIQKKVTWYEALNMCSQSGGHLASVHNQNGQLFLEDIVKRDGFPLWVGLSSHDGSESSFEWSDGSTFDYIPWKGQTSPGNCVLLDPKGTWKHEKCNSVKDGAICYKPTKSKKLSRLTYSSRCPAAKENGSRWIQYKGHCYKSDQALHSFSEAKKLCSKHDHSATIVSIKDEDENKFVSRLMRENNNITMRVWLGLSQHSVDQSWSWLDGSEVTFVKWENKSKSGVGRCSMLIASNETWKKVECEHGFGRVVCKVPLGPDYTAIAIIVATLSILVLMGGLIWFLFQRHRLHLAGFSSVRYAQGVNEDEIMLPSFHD

B1: LY75_A1 monoclonal antibody (antibody, V domains shown)
VH: EVQLVESGGGLVKPGGSLRLSCAASGFTYSNAWMSWVRQAPGKGLEWVGRIKSKTDGGTTDYAAPVQGRFTISRDDSKNTLYLQMNSLKTEDTAVYYCTIFGVVSFDYWGQGTLVTVSS
VL: DVQMTQSPSSLSASVGDRVTITCRASQSISDYLSWYQQRPGKAPNLLIYAASNLKTGVPSRFSGSGSGTDFTLTISTLQPEDFATYYCQQSYRSPWTFGQGTKVEIKR
notes: also called LY75A1 antibody; LY75_A1 antibody
no binding (tested: 1 µg/mL): CYKVFHAE | ERHFVSLC | RHFVSLCQ | SLCQKYSE | LCQKYSEV | CQKYSEVK | QKYSEVKS | WIQYKGHC | HCYKSDQA | CYKSDQAL | KSDQALHS
binds: all other assays above
